Assay results taken from publication PMC6312279, “Characterization of a protozoan Phosducin-like protein-3 (PhLP-3) reveals conserved redox activity” (PLoS ONE, 2018).

Columns and labels:
PbPhLP-3 = target: T1, PbPhLP-3 (Plasmodium berghei, UniProt A0A509AN16); assay: thioredoxin-coupled NADPH oxidation assay, […] nm; format: biochemical; conditions: PbTrxR/PbTrx-1/NADPH as reductant, pH 7.4, 25 °C; linear, non-saturating up to millimolar TBHP, authors suggest non-enzymatic mechanism
T1 construct: gene PBANKA_1204800
T1 sequence (A0A509AN16 1-193): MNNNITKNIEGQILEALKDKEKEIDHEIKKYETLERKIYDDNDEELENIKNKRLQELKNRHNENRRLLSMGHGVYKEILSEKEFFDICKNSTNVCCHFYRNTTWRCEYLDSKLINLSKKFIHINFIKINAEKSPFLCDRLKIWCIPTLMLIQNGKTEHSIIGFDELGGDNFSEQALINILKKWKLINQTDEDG

HsPhLP-3 = target: T2, HsPhLP-3 (Homo sapiens, UniProt O14530); assay: thioredoxin-coupled NADPH oxidation assay, […] nm; format: biochemical; conditions: thioredoxin system/NADPH as reductant, millimolar TBHP needed; data not shown separately
T2 construct: gene TXNDC9
T2 sequence (O14530 1-226): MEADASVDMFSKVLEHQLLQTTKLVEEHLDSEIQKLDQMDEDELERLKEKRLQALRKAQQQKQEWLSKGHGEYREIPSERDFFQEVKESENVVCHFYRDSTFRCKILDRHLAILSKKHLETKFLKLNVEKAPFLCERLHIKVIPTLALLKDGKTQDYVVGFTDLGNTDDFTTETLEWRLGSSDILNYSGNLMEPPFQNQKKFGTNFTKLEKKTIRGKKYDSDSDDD

[1] = target: Plasmodium berghei Phosducin-like protein-3 (PbPhLP-3) (Plasmodium berghei)
[2] = target: T3, human PhLP-3 (HsPhLP-3; thioredoxin-domain containing protein 9, TXNDC9) (human) (UniProt O14530)
T3 sequence: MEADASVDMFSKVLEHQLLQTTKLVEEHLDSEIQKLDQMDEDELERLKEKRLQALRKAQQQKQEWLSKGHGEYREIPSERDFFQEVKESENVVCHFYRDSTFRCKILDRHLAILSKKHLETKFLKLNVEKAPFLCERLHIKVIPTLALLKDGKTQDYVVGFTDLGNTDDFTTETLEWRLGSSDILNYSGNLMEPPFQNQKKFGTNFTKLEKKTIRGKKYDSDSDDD

CC(C)(C)OO [TBHP]
thioredoxin-coupled NADPH oxidation assay, 340 nm (PbPhLP-3): reduction of the compound was observed in the presence of PbPhLP-3 | thioredoxin-coupled NADPH oxidation assay, 340 nm (HsPhLP-3): both PhLP-3 proteins investigated here reduce the oxidative compound TBHP

Plasmodium berghei thioredoxin-1 (PbTrx-1) (natural protein)
KM for PbTrx-1 in the Trx-reduction assay (initial velocities of NADPH oxidation at PbTrx-1 0.5–50 μM) [1]: 5.82 µM | Vmax in the Trx-reduction assay (initial velocities of NADPH oxidation at PbTrx-1 0.5–50 μM) [1]: 10.1 µM/min | kcat in the Trx-reduction assay (initial velocities of NADPH oxidation at PbTrx-1 0.5–50 μM) [1]: 0.0167 s⁻¹ | kcat/KM (rate constant) in the Trx-reduction assay [1]: 2830 M⁻¹ s⁻¹

B1: human Trx-1 (HsTrx-1) (natural protein)
chain: MVKQIESKTAFQEALDAAGDKLVVVDFSATWCGPCKMIKPFFHSLSEKYSNVIFLEVDVDDCQDVASECEVKCMPTFQFFKKGQKVGEFSGANKEKLEATINELV
KM in the Trx-reduction assay with PbTrxR, HsTrx-1 and HsPhLP-3 [2]: 6.53 µM | Vmax in the Trx-reduction assay with PbTrxR, HsTrx-1 and HsPhLP-3 [2]: 12.6 µM/min | kcat in the Trx-reduction assay with PbTrxR, HsTrx-1 and HsPhLP-3 [2]: 0.021 s⁻¹ | kcat/KM (rate constant) in the Trx-reduction assay with PbTrxR, HsTrx-1 and HsPhLP-3 [2]: 3170 M⁻¹ s⁻¹
